B1: ST3GAL1 (protein, UniProt Q11201 1-340, looked up)
CMP-N-acetylneuraminate-beta-g …: MVTLRKRTLKVLTFLVLFIFLTSFFLNYSHTMVATTWFPKQMVLELSENLKRLIKHRPCTCTHCIGQRKLSAWFDERFNQTMQPLLTAQNALLEDDTYRWWLRLQREKKPNNLNDTIKELFRVVPGNVDPMLEKRSVGCRRCAVVGNSGNLRESSYGPEIDSHDFVLRMNKAPTAGFEADVGTKTTHHLVYPESFRELGDNVSMILVPFKTIDLEWVVSAITTGTISHTYIPVPAKIRVKQDKILIYHPAFIKYVFDNWLQGHGRYPSTGILSVIFSMHVCDEVDLYGFGADSKGNWHHYWENNPSAGAFRKTGVHDADFESNVTATLASINKIRIFKGR
B2: PTPRJ (protein, UniProt Q12913 36-1337, looked up)
Receptor-type …: AGGTPSPIPDPSVATVATGENGITQISSTAESFHKQNGTGTPQVETNTSEDGESSGANDSLRTPEQGSNGTDGASQKTPSSTGPSPVFDIKAVSISPTNVILTWKSNDTAASEYKYVVKHKMENEKTITVVHQPWCNITGLRPATSYVFSITPGIGNETWGDPRVIKVITEPIPVSDLRVALTGVRKAALSWSNGNGTASCRVLLESIGSHEELTQDSRLQVNISGLKPGVQYNINPYLLQSNKTKGDPLGTEGGLDASNTERSRAGSPTAPVHDESLVGPVDPSSGQQSRDTEVLLVGLEPGTRYNATVYSQAANGTEGQPQAIEFRTNAIQVFDVTAVNISATSLTLIWKVSDNESSSNYTYKIHVAGETDSSNLNVSEPRAVIPGLRSSTFYNITVCPVLGDIEGTPGFLQVHTPPVPVSDFRVTVVSTTEIGLAWSSHDAESFQMHITQEGAGNSRVEITTNQSIIIGGLFPGTKYCFEIVPKGPNGTEGASRTVCNRTVPSAVFDIHVVYVTTTEMWLDWKSPDGASEYVYHLVIESKHGSNHTSTYDKAITLQGLIPGTLYNITISPEVDHVWGDPNSTAQYTRPSNVSNIDVSTNTTAATLSWQNFDDASPTYSYCLLIEKAGNSSNATQVVTDIGITDATVTELIPGSSYTVEIFAQVGDGIKSLEPGRKSFCTDPASMASFDCEVVPKEPALVLKWTCPPGANAGFELEVSSGAWNNATHLESCSSENGTEYRTEVTYLNFSTSYNISITTVSCGKMAAPTRNTCTTGITDPPPPDGSPNITSVSHNSVKVKFSGFEASHGPIKAYAVILTTGEAGHPSADVLKYTYEDFKKGASDTYVTYLIRTEEKGRSQSLSEVLKYEIDVGNESTTLGYYNGKLEPLGSYRACVAGFTNITFHPQNKGLIDGAESYVSFSRYSDAVSLPQDPGVICGAVFGCIFGALVIVTVGGFIFWRKKRKDAKNNEVSFSQIKPKKSKLIRVENFEAYFKKQQADSNCGFAEEYEDLKLVGISQPKYAAELAENRGKNRYNNVLPYDISRVKLSVQTHSTDDYINANYMPGYHSKKDFIATQGPLPNTLKDFWRMVWEKNVYAIIMLTKCVEQGRTKCEEYWPSKQAQDYGDITVAMTSEIVLPEWTIRDFTVKNIQTSESHPLRQFHFTSWPDHGVPDTTDLLINFRYLVRDYMKQSPPESPILVHCSAGVGRTGTFIAIDRLIYQIENENTVDVYGIVYDLRMHRPLMVQTEDQYVFLNQCVLDIVRSQKDSKVDLIYQNTTAMTIYENLAPVTTFGKTNGYIA
B3: CES2 (protein, UniProt O00748 27-559, looked up)
Cocaine esterase: QDSASPIRTTHTGQVLGSLVHVKGANAGVQTFLGIPFAKPPLGPLRFAPPEPPESWSGVRDGTTHPAMCLQDLTAVESEFLSQFNMTFPSDSMSEDCLYLSIYTPAHSHEGSNLPVMVWIHGGALVFGMASLYDGSMLAALENVVVVIIQYRLGVLGFFSTGDKHATGNWGYLDQVAALRWVQQNIAHFGGNPDRVTIFGESAGGTSVSSLVVSPISQGLFHGAIMESGVALLPGLIASSADVISTVVANLSACDQVDSEALVGCLRGKSKEEILAINKPFKMIPGVVDGVFLPRHPQELLASADFQPVPSIVGVNNNEFGWLIPKVMRIYDTQKEMDREASQAALQKMLTLLMLPPTFGDLLREEYIGDNGDPQTLQAQFQEMMADSMFVIPALQVAHFQCSRAPVYFYEFQHQPSWLKNIRPPHMKADHGDELPFVFRSFFGGNYIKFTEEEEQLSRKMMKYWANFARNGNPNGEGLPHWPLFDQEEQYLQLNLQPAVGRALKAHRLQFWKKALPQKIQELEEPEERHTEL
B4: hOSCAR (protein, UniProt Q8IYS5 19-282, looked up)
Osteoclast-associated …: DITPSVPPASYHPKPWLGAQPATVVTPGVNVTLRCRAPQPAWRFGLFKPGEIAPLLFRDVSSELAEFFLEEVTPAQGGIYRCCYRRPDWGPGVWSQPSDVLELLVTEELPRPSLVALPGPVVGPGANVSLRCAGRLRNMSFVLYREGVAAPLQYRHSAQPWADFTLLGARAPGTYSCYYHTPSAPYVLSQRSEVLVISWEGEGPEARPASSAPGMQAPGPPPSDPGAQAPSLSSFRPRGLVLQPLLPQTQDSWDPAPPPSDPGV
B5: CST5 (protein, UniProt P28325 21-142, looked up)
Cystatin-D: GSASAQSRTLAGGIHATDLNDKSVQCALDFAISEYNKVINKDEYYSRPLQVMAAYQQIVGGVNYYFNVKFGRTTCTKSQPNLDNCPFNDQPKLKEEEFCSFQINEVPWEDKISILNYKCRKV
B6: LAT (protein, UniProt O43561 1-262, looked up)
Linker for activation of …: MEEAILVPCVLGLLLLPILAMLMALCVHCHRLPGSYDSTSSDSLYPRGIQFKRPHTVAPWPPAYPPVTSYPPLSQPDLLPIPRSPQPLGGSHRTPSSRRDSDGANSVASYENEGASGIRGAQAGWGVWGPSWTRLTPVSLPPEPACEDADEDEDDYHNPGYLVVLPDSTPATSTAAPSAPALSTPGIRDSAFSMESIDDYVNVPESGESAEASLDGSREYVNVSQELHPGAAKTEPAALSSQEAEEVEEEGAPDYENLQELN
B7: CNDP1 (protein, UniProt Q96KN2 27-507, looked up)
Beta-Ala-His dipeptidase: SPSPPPALLEKVFQYIDLHQDEFVQTLKEWVAIESDSVQPVPRFRQELFRMMAVAADTLQRLGARVASVDMGPQQLPDGQSLPIPPVILAELGSDPTKGTVCFYGHLDVQPADRGDGWLTDPYVLTEVDGKLYGRGATDNKGPVLAWINAVSAFRALEQDLPVNIKFIIEGMEEAGSVALEELVEKEKDRFFSGVDYIVISDNLWISQRKPAITYGTRGNSYFMVEVKCRDQDFHSGTFGGILHEPMADLVALLGSLVDSSGHILVPGIYDEVVPLTEEEINTYKAIHLDLEEYRNSSRVEKFLFDTKEEILMHLWRYPSLSIHGIEGAFDEPGTKTVIPGRVIGKFSIRLVPHMNVSAVEKQVTRHLEDVFSKRNSSNKMVVSMTLGLHPWIANIDDTQYLAAKRAIRTVFGTEPDMIRDGSTIPIAKMFQEIVHKSVVLIPLGAVDDGEHSQNEKINRWNYIEGTKLFAAFFLEMAQLH
B8: NFKBIE (protein, UniProt O00221 1-500, looked up)
NF-kappa-B inhibitor epsilon: MNQRRSESRPGNHRLQAYAEPGKGDSGGAGPLSGSARRGRGGGGAIRVRRPCWSGGAGRGGGPAWAVRLPTVTAGWTWPALRTLSSLRAGPSEPHSPGRRPPRAGRPLCQADPQPGKAARRSLEPDPAQTGPRPARAAGMSEARKGPDEAEESQYDSGIESLRSLRSLPESTSAPASGPSDGSPQPCTHPPGPVKEPQEKEDADGERADSTYGSSSLTYTLSLLGGPEAEDPAPRLPLPHVGALSPQQLEALTYISEDGDTLVHLAVIHEAPAVLLCCLALLPQEVLDIQNNLYQTALHLAVHLDQPGAVRALVLKGASRALQDRHGDTALHVACQRQHLACARCLLEGRPEPGRGTSHSLDLQLQNWQGLACLHIATLQKNQPLMELLLRNGADIDVQEGTSGKTALHLAVETQERGLVQFLLQAGAQVDARMLNGCTPLHLAAGRGLMGISSTLCKAGADSLLRNVEDETPQDLTEESLVLLPFDDLKISGKLLLCTD

The subject of this experiment is plasma proteins. The experiment in a line: Plasma proteins modulated between baseline and day 28 in responders (CR, VGPR, PR; n = 19), Example 6 (Table 13). Type of experiment: in vivo, human. Conditions: plasma protein (OLINK NPX); responders (CR, VGPR, PR; n = 19); itacitinib 200 mg or 300 mg QD with corticosteroids; day 28 vs baseline. Summed up: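 Plasma at baseline/screening and day 28 profiled for >1000 proteins by OLINK proximity extension assay, reported as NPX (log2). Steroid-naive and steroid-refractory patients pooled. Paired and unpaired t tests, ANOVA and Pearson correlation applied; significance at P<0.05.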
Regarding B1, the “Fold Change, Increased Expression from Baseline to Day 28” value (“Fold Change, Increased Expression” below) was determined as 1.3415.

On to B2, for which the “Fold Change, Decreased Expression from Baseline to Day 28” value (“Fold Change, Decreased Expression” below) is listed as −1.7421.

Consider B3, for which the “Fold Change, Increased Expression” value worked out at 1.4212.

Take B4: the “Fold Change, Decreased Expression” value is given as −1.2603.

In the case of B5, the “Fold Change, Increased Expression” value is given as 1.3521.

In the case of B6, the “Fold Change, Decreased Expression” value was −2.049.

B7: the “Fold Change, Increased Expression” value was 1.3856.

For the molecule B8, the “Fold Change, Decreased Expression” value was −1.2885.

The record behind these values is patent publication US12099068B2, “Biomarkers for graft-versus-host disease” (Incyte Corporation, priority 2018, dated 2024).
